Measured values: US20230235073A1 (ONA THERAPEUTICS S L, published 2023)

B1: ONA-0-v1 anti-CD36 antibody (murine IgA) (antibody)
heavy: QVQLKQSGADLVRPGASVKLSCKASGYTFTDYYINWVKQRPGQGLEWIARIYPGSGNTYYNEKFKGKATLTAEKSSSTAYMQLSSLTSEDSAVYFCARGIGGGFGMDYWGQGTSVTVSSESARNPTIYPLTLPPVLCSDPVIIGCLIHDYFPFGTMNVTWGKSGKDITTVNFPPALASGGRYTMSSQLTLPAVECPEGESVKCSVQHDSNPVQELDVNCSPTPPPPITIPSCQPSLSLQRPALEDLLLGSDASITCTLNGLRNPEGAAFTWEPSTGKDAVQKKAAQNSCGCYSVSSVLPGCAERWNSGASFKCTVTHPESGTLTGTIAKVTVNTFPPQVHLLPPPSEELALNELLSLTCLVRAFNPKEVLVRWLHGNEELSPESYLVFEPLKEPGEGATTYLVTSVLRVSAETWKQGDQYSCMVGHEALPMNFTQKTIDRLSGKPTNVSVSVIMSEGDGICY
light: SIVMTQTPKFLLVSAGDRITITCKASQSVSDDVAWYQQKPGQSPKLLIYYASNRYTGVPDRFTGSGYGTDFTFTISTVQAEDLAVYFCQQDYSSPLTFGAGTKLEIKRADAAPTVSIFPPSSEQLTSGGASVVCFLNNFYPKDINVKWKIDGSERQNGVLNSWTDQDSKDSTYSMSSTLTLTKDEYERHNSYTCEATHKTSTSPIVKSFNRNEC
notes: mouse IgA constant region; produced in HEK 293 cells; also called ONA-0-v1 (IgA); ONA-O-v1 (IgA)
B2: 1G04 (chimeric ONA-0-v1 IgG1 LALA antibody) (antibody)
heavy: not shown
light: SIVMTQTPKFLLVSAGDRITITCKASQSVSDDVAWYQQKPGQSPKLLIYYASNRYTGVPDRFTGSGYGTDFTFTISTVQAEDLAVYFCQQDYSSPLTFGAGTKLEIKRTVAAPSVFIFPPSDEQLKSGTASVVCLLNNFYPREAKVQWKVDNALQSGNSQESVTEQDSKDSTYSLSSTLTLSKADYEKHKVYACEVTHQGLSSPVTKSFNRGEC
notes: Human IgG1 with the LALA alteration, human kappa light chain; also called 1G04 (IgG1)
B3: 1G06 antibody (chimeric ONA-0-v1 IgG1) (antibody)
heavy: QVQLKQSGADLVRPGASVKLSCKASGYTFTDYYINWVKQRPGQGLEWIARIYPGSGNTYYNEKFKGKATLTAEKSSSTAYMQLSSLTSEDSAVYFCARGIGGGFGMDYWGQGTSVTVSSASTKGPSVFPLAPSSKSTSGGTAALGCLVKDYFPEPVTVSWNSGALTSGVHTFPAVLQSSGLYSLSSVVTVPSSSLGTQTYICNVNHKPSNTKVDKKVEPKSCDKTHTCPPCPAPESTRGPSVFLFPPKPKDTLMISRTPEVTCVVVDVSHEDPEVKFNWYVDGVEVHNAKTKPREEQYNSTYRVVSVLTVLHQDWLNGKEYKCKVSNKALPAPIEKTISKAKGQPREPQVYTLPPSRDELTKNQVSLTCLVKGFYPSDIAVEWESNGQPENNYKTTPPVLDSDGSFFLYSKLTVDKSRWQQGNVFSCSVMHEALHNHYTQKSLSLSPGK
light: SIVMTQTPKFLLVSAGDRITITCKASQSVSDDVAWYQQKPGQSPKLLIYYASNRYTGVPDRFTGSGYGTDFTFTISTVQAEDLAVYFCQQDYSSPLTFGAGTKLEIKRTVAAPSVFIFPPSDEQLKSGTASVVCLLNNFYPREAKVQWKVDNALQSGNSQESVTEQDSKDSTYSLSSTLTLSKADYEKHKVYACEVTHQGLSSPVTKSFNRGEC

Key:
[1] = molecular target: T1, human CD36 on cells overexpressing human CD36 (human, UniProt P16671 2-472); assay: FACS on cells overexpressing human CD36, % of Binding
T1 sequence (P16671 2-472 limits assumed): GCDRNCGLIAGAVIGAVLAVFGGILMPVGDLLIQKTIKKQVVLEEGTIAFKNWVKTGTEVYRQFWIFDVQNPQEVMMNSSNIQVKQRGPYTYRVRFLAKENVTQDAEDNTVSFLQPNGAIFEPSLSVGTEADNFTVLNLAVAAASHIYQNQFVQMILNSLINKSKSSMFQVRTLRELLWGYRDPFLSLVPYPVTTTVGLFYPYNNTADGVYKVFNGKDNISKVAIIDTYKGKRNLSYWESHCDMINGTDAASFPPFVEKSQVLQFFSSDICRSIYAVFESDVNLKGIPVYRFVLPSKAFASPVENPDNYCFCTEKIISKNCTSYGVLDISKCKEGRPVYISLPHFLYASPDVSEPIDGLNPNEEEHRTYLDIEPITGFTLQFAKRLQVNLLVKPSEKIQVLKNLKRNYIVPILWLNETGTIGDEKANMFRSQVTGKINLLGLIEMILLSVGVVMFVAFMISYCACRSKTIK
Experimental: For FACS analysis, cells were trypsinized, collected in a 15 mL tube and diluted in washing buffer (2% FBS in PBS). Cells were then centrifuged at 1500 rpm for 5 min at 4° C., supernatant was discarded, and cells were resuspended in fresh washing buffer. Anti-CD36 antibodies were either omitted (control wash buffer treatment) or serially diluted in washing buffer (dilution range up to 100 nM), and then added to the cells. Incubation was performed on ice for 1 hour. Cells were then centrifuged at 1500 rpm for 5 min at 4° C., supernatant was discarded, and cells were resuspended in fresh washing buffer. Finally, cells were incubated with a […] (BV421 Rat Anti-Mouse IgA, Becton Dickinson, reference 743293) diluted 1:100 in washing buffer, washed and analysed by FACS.

[2] = molecular target: T2, human CD36 recombinant protein (Sino Biological, reference 10752-H08H) (human, UniProt P16671 30-439); assay: SPR Biacore T200, antibody captured on anti-mouse IgA, CD36 analyte, 2-state model
T2 construct: Bought recombinant protein
T2 sequence (P16671 30-439 limits assumed): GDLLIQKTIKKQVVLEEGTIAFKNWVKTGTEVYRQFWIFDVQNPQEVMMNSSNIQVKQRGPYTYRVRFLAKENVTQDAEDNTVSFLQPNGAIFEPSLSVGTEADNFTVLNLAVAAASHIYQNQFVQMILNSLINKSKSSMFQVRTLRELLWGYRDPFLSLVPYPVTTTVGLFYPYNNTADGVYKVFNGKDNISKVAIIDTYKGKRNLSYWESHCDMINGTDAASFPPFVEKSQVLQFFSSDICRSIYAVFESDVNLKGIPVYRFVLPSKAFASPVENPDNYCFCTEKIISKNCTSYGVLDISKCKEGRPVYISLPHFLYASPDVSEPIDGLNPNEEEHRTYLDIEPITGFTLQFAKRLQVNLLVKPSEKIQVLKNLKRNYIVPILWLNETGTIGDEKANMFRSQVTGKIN
Experimental: (§1) The affinity of ONA-0-v1, 1G04, and a commercial anti-CD36 antibody (JC63.1) for human CD36 was also measured by surface plasmon resonance (SPR) using a Biacore T200. 1G04 was analysed using a protein A capture surface, with a capture range of 100-150 RU and an antigen titration range of 3.3-333 nM. The mouse antibodies ONA-0-V1 and the commercial anti-CD36 antibody were analysed using an anti-mouse IgA capture surface, with a capture range of 160-180 RU and an antigen titration range of 3.3-333 nM. For each single analysis cycle a titration of five antigen concentrations were injected over the captured antibody and then the dissociation of the complex was measured. A double referencing method was employed in which data from the reference surfaces where no antibody was captured (fc 1 and 3 respectively) were subtracted from the antibody bound capture surface (fc 2 and 4). Blank injections of buffer were run for every antigen titration cycle and then subtracted from analyte injection cycles, to correct for small changes in the antibody capture surface density. All analysis was performed at 25° C., and the sample rack was kept at 6° C. during experimental runs. Each experiment was run at least three times with the mean binding constants generated from at least two independent assays reported. All analysis was performed in PBS-T running buffer at 40 μL/min.

[3] = molecular target: T3, mouse CD36 recombinant protein (Sino Biological, reference 50422-M08H) (mouse, UniProt Q08857 30-439); assay: estimated from ELISA, CD36 coated on plate; mouse CD36 coated on plate
T3 construct: Bought recombinant protein; also called murine CD36
T3 sequence (Q08857 30-439 limits assumed, stated change not applied): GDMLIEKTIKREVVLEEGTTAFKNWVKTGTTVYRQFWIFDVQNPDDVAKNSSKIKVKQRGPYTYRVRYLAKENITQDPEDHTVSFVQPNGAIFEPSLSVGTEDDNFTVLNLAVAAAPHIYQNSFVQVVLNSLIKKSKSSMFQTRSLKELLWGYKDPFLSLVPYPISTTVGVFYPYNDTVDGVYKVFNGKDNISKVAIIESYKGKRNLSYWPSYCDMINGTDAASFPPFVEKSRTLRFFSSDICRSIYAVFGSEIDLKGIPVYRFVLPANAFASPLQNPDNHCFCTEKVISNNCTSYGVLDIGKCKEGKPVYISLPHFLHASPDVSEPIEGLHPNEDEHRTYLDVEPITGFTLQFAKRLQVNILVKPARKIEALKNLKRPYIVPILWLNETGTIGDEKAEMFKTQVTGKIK
Experimental: (§2) To perform ELISA assays, 96-well ELISA plates were coated over night with human CD36 (Sino Biological, reference 10752-H08H) or mouse CD36 (Sino Biological, reference 50422-M08H) recombinant proteins at a concentration of 0.25 mg/ml. After two washes with PBS, plates were blocked with 4% skimmed milk in PBS for 1 hour at 37° C. Blocking solution was discarded and plates were washed five times with 200 μl/well PBS-Tween20 (0.5%). Primary antibodies were either omitted (control blocking solution treatment) or mixed in blocking solution at several dilutions ranging from 0.01 nM to 0.5 μM. The primary antibody solutions were added to the wells and incubated over night at 4° C. After 5 washes with 200 ul/well of PBS-Tween20 (0.5%), plates were incubated for 1 hour at room temperature with a goat anti-mouse HRP-conjugated antibody (Abeam, reference ab97235) diluted 1:2000 in blocking solution. Plates were then washed 5 times with 200 μl/well of PBS-Tween20 (0.5%), incubated with 100 μl/well TMB and detected after 10 minutes, 30 minutes, or 60 minutes with a spectrophotometer at a wave length of 630 nm.

[4] = molecular target: T2, human CD36 recombinant protein (Sino …); assay: SPR Biacore T200, antibody captured on anti-mouse IgA, CD36 analyte 3.3-333 nM, 1-to-1 model
Experimental: as §1

[5] = molecular target: T3, mouse CD36 recombinant protein (Sino …); assay: ELISA, plate coated with mouse CD36, OD630, panel 'Coating: mouse CD36'
Experimental: as §2

[6] = molecular target: T2, human CD36 recombinant protein (Sino …); assay: estimated from ELISA, CD36 coated on plate; human CD36 coated on plate
Experimental: as §2

[7] = molecular target: T2, human CD36 recombinant protein (Sino …); assay: SPR Biacore T200, antibody captured on protein A, CD36 analyte 3.3-333 nM, 1-to-1 model
Experimental: as §1

[8] = molecular target: T3, mouse CD36 recombinant protein (Sino …); assay: ELISA, plate coated with mouse CD36, OD630nm
Experimental: as §2

[9] = molecular target: T2, human CD36 recombinant protein (Sino …); assay: SPR Biacore T200, antibody captured on protein A, CD36 analyte, 2-state model
Experimental: as §1

[10] = molecular target: T2, human CD36 recombinant protein (Sino …); assay: ELISA, plate coated with human CD36, OD630, panel 'Coating: human CD36'; Kd printed beside the 1G04 curve
Experimental: as §2

[11] = molecular target: T2, human CD36 recombinant protein (Sino …); assay: ELISA, plate coated with human CD36, OD630nm
Experimental: as §2

[12] = molecular target: T1, human CD36 on cells overexpressing …; assay: FACS on cells overexpressing human CD36, GeoMFI against Log10 mAb Concentration (nM)
[13] = molecular target: T1, human CD36 on cells overexpressing …; assay: FACS on cells overexpressing human CD36, MFI
[14] = molecular target: T3, mouse CD36 recombinant protein (Sino …); assay: ELISA, plate coated with mouse CD36, OD630, panel 'Coating: mouse CD36'; Kd printed beside the 1G04 curve
Experimental: as §2

Binder	EC50 (read off the curve) [1] [nM]	Kd [2] [nM]	Kd [3] [nM]	Kd [4] [nM]	koff [4] [s⁻¹]	kon [4] [M⁻¹ s⁻¹]	EC50 (read off the curve) [5] [nM]	Kd [6] [nM]	Kd [7] [nM]	koff [7] [s⁻¹]	kon [7] [M⁻¹ s⁻¹]	EC50 (read off the curve) [8] [nM]	Kd [9] [nM]	Kd [10] [nM]	EC50 (read off the curve) [11] [nM]	EC50 (read off the curve) [12] [nM]	EC50 (read off the curve) [13] [nM]	Kd [14] [nM]
B1	~0.03	8.72	~0.1	5.85	0.00354	632000	~1	~0.04	–	–	–	–	–	–	–	–	–	–
B2	~0.03	–	–	–	–	–	–	–	1.74	0.000159	100000	~0.3	2.78	0.04	~0.08	~0.4	~0.2	0.1
B3	–	–	–	–	–	–	–	–	–	–	–	–	–	–	~0.08	~0.4	–	–
